According to patent US8961929B2, “Targeting agent for tumor site” (FUJIFILM Corporation, priority 2010, dated 2015):

Assay: Isoelectric point of gelatin
Assay type: physicochemical
Conditions: recombinant gelatin CBE3

## CBE3: recombinant gelatin, SEQ ID NO: 1, Gly-Ala-Pro[(Gly-X-Y)63]3Gly, 571 amino acids, 12 RGD sequences
  Isoelectric point: 9.34
